Legend:
[1] = molecular target: T1, human epidermal growth factor receptor 2 (HER2) (human, UniProt P04626 23-1255); assay: cell-based or functional assay
[2] = molecular target: T1, human epidermal growth factor receptor …; assay: flow cytometry on AU565 cells (high HER2), PE-goat anti-human IgG, MFI; EC50 by non-linear regression (Example 12)
Experimental: (§1) Binding of HER2 antibodies was detected using a Phycoerythrin (PE)-conjugated goat-anti-human IgG antibody (Jackson). […] EC₅₀ values were determined by means of non-linear regression (sigmoidal dose-response with variable slope) using GraphPad Prism V4.03 software (GraphPad Software, San Diego, Calif., USA).

[3] = molecular target: T1, human epidermal growth factor receptor …; assay: flow cytometry on A431 cells (low HER2), PE-goat anti-human IgG, MFI; EC50 by non-linear regression (Example 12)
Experimental: as §1

[4] = molecular target: T1, human epidermal growth factor receptor …; assay: as above; remark: listed apart in the source
Experimental: as §1

[5] = molecular target: T1, human epidermal growth factor receptor …; assay: flow cytometry on AU565 cells (high HER2), PE-goat anti-human IgG, MFI; EC50 by non-linear regression (Example 12); remark: listed apart in the source
Experimental: as §1

[6] = molecular target: T1, human epidermal growth factor receptor …; assay: as above; remark: listed apart in the source
Experimental: as §1

[7] = molecular target: T1, human epidermal growth factor receptor …; assay: flow cytometry on A431 cells (low HER2), PE-goat anti-human IgG, MFI; EC50 by non-linear regression (Example 12); remark: listed apart in the source
Experimental: as §1

[8] = molecular target: T2, human CD3 protein complex (human, UniProt P07766 23-207; P09693 23-182; P04234 22-171; P20963 22-164); assay: flow cytometry on Jurkat cells (CD3-expressing T cell line), MFI (PE) (Example 21)
T2 construct: whole, on cells; also called CD3 on Jurkat cells
T2 sequence (P07766 23-207, form in doubt, chain 1 of 4): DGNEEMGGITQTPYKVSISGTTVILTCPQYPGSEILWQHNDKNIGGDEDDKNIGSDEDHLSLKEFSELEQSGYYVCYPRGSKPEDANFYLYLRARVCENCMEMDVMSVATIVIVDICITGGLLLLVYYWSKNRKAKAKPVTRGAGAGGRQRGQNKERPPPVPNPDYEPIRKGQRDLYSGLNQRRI
T2 sequence (P09693 23-182, form in doubt, chain 2 of 4): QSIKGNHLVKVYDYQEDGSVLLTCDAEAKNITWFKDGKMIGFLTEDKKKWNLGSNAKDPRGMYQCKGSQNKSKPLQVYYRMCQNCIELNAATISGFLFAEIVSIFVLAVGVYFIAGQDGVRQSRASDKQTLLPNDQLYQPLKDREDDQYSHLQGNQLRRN
T2 sequence (P04234 22-171, form in doubt, chain 3 of 4): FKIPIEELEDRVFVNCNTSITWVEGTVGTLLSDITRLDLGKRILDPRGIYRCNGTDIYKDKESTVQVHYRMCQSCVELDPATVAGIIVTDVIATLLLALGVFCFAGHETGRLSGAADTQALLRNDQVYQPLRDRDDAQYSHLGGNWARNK
T2 sequence (P20963 22-164, form in doubt, chain 4 of 4): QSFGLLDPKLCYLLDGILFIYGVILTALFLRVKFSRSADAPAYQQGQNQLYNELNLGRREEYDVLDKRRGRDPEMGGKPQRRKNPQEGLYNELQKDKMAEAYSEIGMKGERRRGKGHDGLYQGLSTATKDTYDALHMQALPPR

| Binder | EC50, fab-CypHer5E internalization assay, AU565 cells [1] [µg/mL] | Maximal MFI, fab-CypHer5E internalization assay, AU565 cells [1] [MFI] | EC50 [2] [µg/mL] | EC50 [3] [µg/mL] | EC50 [4] [µg/mL] | EC50 [5] [µg/mL] | EC50 [6] [µg/mL] | EC50 [7] [µg/mL] | EC50 (read off the curve) [8] [µg/mL] |
| --- | --- | --- | --- | --- | --- | --- | --- | --- | --- |
| HER2 HuMab 111 (antibody, V domains shown, also called PC1014-111) VH: QVQLVQSGAEVKKPGSSVKVSCKASGGTFSSYGISWVRQAPGPGLEWMGRIIPILGIANYAQKFQGRVTITADKSTNTAYMELSSLRSEDTAVYYCARDQEYSSNWYYWGQGTLVTVSS VL: not shown | 0.0352 | 81700 | 0.915 | 0.996 |  |  |  |  |  |
| HER2 HuMab 169 (antibody, V domains shown) VH: QVQLVQSGAEVKKPGASVKVSCKASGYTFTNYGISWVRQAPGQGLEWMGWLSAYSGNTIYAQKLQGRVTMTTDTSTTTAYMELRSLRSDDTAVYYCARDRIVVRPDYFDYWGQGTLVTVSS VL: EIVLTQSPATLSLSPGERATLSCRASQSVSSYLAWYQQKPGQAPRLLIYDASNRATGIPARFSGSGSGTDFTLTISSLEPEDFAVYYCQQRSNWPRTFGQGTKVEIK |  | 38800 |  |  | 0.415 | 0.908 |  |  |  |
| HER2 HuMab 132 (antibody, V domains shown, also called PC1014-132) VH: QVQLVQSGAEVKKPGASVKVSCKASGYTFTSYGISWVRQAPGQGLEWMGWISAYNGNSNYVQKFQGRVTMTTDTTTSTAYMELRSLTSDDTAVYYCAREYSYDSGTYFYYGMDVWGQGTTVTVSS VL: EIVLTQSPATLSLSPGERATLSCRASQSVSSYLAWYQQKPGQAPRLLIYDASNRATGIPARFSGSGSGTDFTLTISSLEPEDFAVYYCQQRSNWPMYTFGQGTKLEIK | 0.0114 | 112000 |  |  | 0.068 | 0.911 |  |  |  |
| HER2 HuMab 005 (antibody, human IgG1, V domains shown, Human IgG1,κ; also called PC1014-005; TH1014-005) VH: EVQLVQSGAEVKKPGESLKISCKASGYSFHFYWIGWVRQMPGKGLEWMGSIYPGDSDTRYRPSFQGQVTISADKSISTAYLQWTSLKASDTAIYYCARQRGDYYYFYGMDVWGQGTTVTVSS VL: not shown | 0.0214 | 95100 | 0.818 | 0.789 |  |  |  |  |  |
| HER2 HuMab 129 (antibody, V domains shown, also called PC1014-129) VH: QVQLVESGGGVVQPGRSLRLSCAASGFTFSTFAIHWVRQAPGKGLEWVAVISYDGGHKFYADSVKGRFTISRDNSKNTLYLQMNSLRAEDTAMYYCARGLGVWGAFDYWGQGTLVTVSS VL: EIVLTQSPATLSLSPGERATLSCRASQSVSSYLAWYQQKPGQAPRLLIYDASNRATGIPARFSGSGSGTDFTLTISSLEPEDFAVYYCQQRSNWWTFGQGTKVEIK | 0.00715 | 60300 |  |  | 0.316 | 0.578 |  |  |  |
| HER2 HuMab 059 (antibody, V domains shown, also called PC1014-059) VH: QVQLVQSGAEVKKPGASVRVPCKASGYTFTRYGISWVRQAPGQGLEWMGWISAYNGKTYYAQKLQGRVTMTTDTSTSTAYMELRSLRSDDTAVYYCARSPLLWFEELYFDYWGQGTLVTVSS VL: EIVLTQSPGTLSLSPGERATLSCRASQSVSSTYLAWYQQKPGQAPRLLIYGASSRATGIPDRFSGSGSGTDFTLTISRLEPEDFAVYYCQQYGTSLFTFGPGTKVDIK | 0.0148 | 77100 | 1.31 | 0.213 |  |  |  |  |  |
| HER2 HuMab 060 (antibody, V domains shown, also called PC1014-060) VH: EVQLVQSGAEVKKPGESLKISCKGSGYRFTSYWIGWVRQMPGKGLEWMGSIYPGDSYTRNSPSFQGQVTISADKSIATAYLQWNSLKASDTAMYYCARHAGDFYYFDGLDVWGQGTTVTVSS VL: not shown | 0.0362 | 68200 | 2.68 | 1.98 |  |  |  |  |  |
| HER2 HuMab 084 (antibody, V domains shown, also called PC1014-084) VH: QVQLVQSGAEVKKPGSSVKVSCKASGGTFRTYAINWVRQAPGQGLEWMGRINTVLGIVNHAQKFQGRVTITADKSTNTAYMELNSLRSEDTAVYYCAREKGVDYYYGIEVWGQGTTVTVSS VL: DIQMTQSPSSVSASVGDRVTITCRASQGISSWLAWYQHKPGKAPKLLIYVASTLQSGVPSRFSGSGSGTDFTLTISSLQPEDFATYYCQQANSFPLTFGGGTKVEIK | 0.0305 | 71100 |  |  |  |  | 0.491 | 0.498 |  |
| IgG1-hu-CLB-T3/4-F405L (antibody, V domains shown, Expressed as IgG1,κ with F405L) VH: EVQLVESGGGLVKPGGSLRLSCAASGFTFSSYGMFWVRQAPGKGLEWVATISRYSRYIYYPDSVKGRFTISRDNAKNSLYLQMNSLRAEDTAVYYCARRPLYGSSPDYWGQGTLVTVSS VL: EIVLTQSPATLSLSPGERATLSCSASSSVTYVHWYQQKPGQAPRLLIYDTSKLASGIPARFSGSGSGTDFTLTISSLEPEDFAVYYCFQGSGYPLTFGSGTKLEMR |  |  |  |  |  |  |  |  | ~0.03 |
| HER2 HuMab 106 (antibody, V domains shown) VH: EVQLVQSGAEVKKPGESLKISCKGSGYSFTRYWIGWVRQMPGKGLEWMGIIYPGDSDTRYSPSFQGQVTISADKSISTAYLQWSSLKASDTAMYYCARLTGDRGFDYYSGMDVWGQGTTVTVSS VL: not shown | 0.0686 | 57400 | 1.55 | 1.66 |  |  |  |  |  |
| HER2 HuMab 025 (antibody, V domains shown, also called PC1014-025; TH1014-025) VH: QVQLQQWGAGLLKPSETLSLTCAVYGGSFSDYYWNWIRQPPGKGLEWIGEIHHSGSTNYNPSLKSRVTISVDTSKNQFSLKLSSVTAADTAVYYCARGYYDSGVYYFDYWAQGTLVTVSS VL: DIQMTQSPSSLSASVGDRVTITCRASQGISRWLAWYQQKPEKAPKSLIYAASSLRSGVPSRFSGSGSGTDFTLTISSLQPEDFATYYCQQYNSYPITFGQGTRLEIK | 0.0301 | 63400 |  |  |  |  | 0.58 | 0.128 |  |
| IgG1-hu-CLB-T3/4-F405L × IgG1-HER2-153-K409R (bispecific antibody, Made by 2-MEA-induced Fab-arm exchange; IgG1,κ; also called huCLB-T3/4×HER2 153) heavy 1: not shown VL 1: DIQMTQSPSSLSASVGDRVTITCRASQGISSWLAWYQQKPEKAPKSLIYDASSLQSGVPSRFSGSGYGTDFSLTISSLQPEDFAIYYCQQYKSYPITFGQGTRLEIK heavy 2: not shown VL 2: EIVLTQSPATLSLSPGERATLSCSASSSVTYVHWYQQKPGQAPRLLIYDTSKLASGIPARFSGSGSGTDFTLTISSLEPEDFAVYYCFQGSGYPLTFGSGTKLEMR |  |  |  |  |  |  |  |  | ~0.2 |
| HER2 HuMab 091 (antibody, V domains shown, also called PC1014-091) VH: QVQLQQWGAGLLKPSETLSLTCAVSGGSFSGYYWTWIRQPPGKGLEWIGEIYHSGDTNYNPSLKSRVTISVDTSKNQFSLKLYSVTAADTAVYYCARLYFGSGIYYLDYWGQGTLVTVSS VL: DIQMTQSPSSLSASVGDRVTITCRASQGISSWLVWYQQKPEKAPKSLIYAASSLQSGVPSRFSGSGSGTDFTLTISSLQPEDFATYYCQQYNSFPPTFGQGTKVEIK | 0.033 | 50700 |  |  |  |  | 0.965 | 0.633 |  |
| HER2 HuMab 050 (antibody, V domains shown, also called PC1014-050) VH: EVQLLESGGGLVQPGGSLRLSCAASGFTFSSYAMNWVRQAPGKGLEWVSAISGRGGTTYYADSVKGRFTISRDNSKNTLYLQMSSLRAEDTAVYYCAKARANWDYFDYWGQGTLVTVSS VL: DIQMTQSPSSVSASVGDRVTITCRASQGISSWLAWYQHKPGKAPKLLIYAASILQSGVPSRFSGSGSGTDFTLTISSLQPEDFATYYCQQANSFPITFGQGTRLEIK |  |  |  |  |  |  | 0.722 | 1.14 |  |
| HER2 HuMab 159 (antibody, V domains shown, also called PC1014-159) VH: EVQLVQSGAEVKKPGESLKISCKGSGYNFTSYWIGWVRQMPGKGLEWMGIIYPGDSDTRYSPSFQGQVTISADKSISTAYLQWSSLKASDTAMYYCARWGTYYDILTGYFNWFDPWGQGTLVTVSS VL: DIQMTQSPSSLSASVGDRVTITCRASQGISSWLAWYQQKPEKAPKSLIYAASSLQSGVPSRFSGSGSGTDFTLTISSLQPEDFATYYCQQYYIYPWTFGQGTKVEIK |  | 92400 |  |  | 0.855 | 1.3 |  |  |  |
| HER2 HuMab 098 (antibody, V domains shown, also called PC1014-098; TH1014-098) VH: EVQLLESGGGLVQPGGSLRLSCAASGFTFSNYGMSWVRQAPGKGLEWVSAISGSAYSTYYADSVKGRFTISRDNSKNTLWLQMNSLRAEDTAVYYCAKAHYHGSGSYYTLFDYWGQGTLVTVSS VL: DIQMTQSPSSLSASVGDRVTITCRASQGISSWLAWYQQKPEKAPKSLIYAASSLQSGVPSRFSGSGSGTDFTLTISSLQPEDFATYYCQQYNSYPYTFGQGTKLEIK | 0.0138 | 135000 |  |  |  |  | 0.336 | 0.101 |  |
| HER2 HuMab 127 (antibody, V domains shown) VH: EVQLVQSGAEVKKPGESLTISCKGSGYSFSIYWIGWVRQMPGKGLEWMGIIFPGDSDIRYSPSFQGQVTISADKSISTAYLQWSSLKASDTAMYYCARQPGDWSPRHWYFDLWGRGTLVTVSS VL: VIWMTQSPSLLSASTGDRVTISCRMSQGISSYLAWYQQKPGKAPELLIYAASTLQSGVPSRFSGSGSGTDFTLTISYLQSEDFATYYCQQYYSFPLTFGGGTKVEIK | ~0.00968 | 138000 |  |  |  |  | 2.29 | 0.27 |  |
